In US20240392004A1 (IMMUNOWAKE, published 2024):

Tests used:
[1] = target: human PD-1 on cells (HEK-PD-1 reporter cells; activated PBMC) (human, UniProt Q15116 25-288); experiment: cell-based or functional assay
[2] = target: T1, human IL-2 receptor (IL-2Rα, IL-2Rβ, IL-2Rγ) (human, UniProt P01589 22-272; P14784 27-551; P31785 23-369); experiment: cell-based or functional assay
T1 sequence (looked up) 1: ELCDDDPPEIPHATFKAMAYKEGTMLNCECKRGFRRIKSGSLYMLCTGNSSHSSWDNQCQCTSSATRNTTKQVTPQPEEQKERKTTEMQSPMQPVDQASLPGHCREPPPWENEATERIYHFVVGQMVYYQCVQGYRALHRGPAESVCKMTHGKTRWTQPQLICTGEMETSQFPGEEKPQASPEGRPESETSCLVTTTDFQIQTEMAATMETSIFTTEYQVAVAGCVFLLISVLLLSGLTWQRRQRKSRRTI
T1 sequence (looked up) 2: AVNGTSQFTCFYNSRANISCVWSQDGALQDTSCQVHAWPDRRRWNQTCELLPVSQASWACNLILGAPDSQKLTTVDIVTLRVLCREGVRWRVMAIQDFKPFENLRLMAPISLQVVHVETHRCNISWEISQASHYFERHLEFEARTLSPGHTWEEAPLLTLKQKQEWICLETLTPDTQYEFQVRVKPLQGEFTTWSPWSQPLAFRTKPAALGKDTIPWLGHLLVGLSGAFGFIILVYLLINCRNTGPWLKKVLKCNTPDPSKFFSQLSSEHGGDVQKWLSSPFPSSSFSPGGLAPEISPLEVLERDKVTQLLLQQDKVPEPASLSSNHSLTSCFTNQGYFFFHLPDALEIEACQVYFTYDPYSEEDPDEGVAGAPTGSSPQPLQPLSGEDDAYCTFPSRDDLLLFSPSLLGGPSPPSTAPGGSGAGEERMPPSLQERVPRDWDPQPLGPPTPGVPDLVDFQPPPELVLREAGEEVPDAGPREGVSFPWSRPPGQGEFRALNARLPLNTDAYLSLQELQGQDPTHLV
T1 sequence (looked up) 3: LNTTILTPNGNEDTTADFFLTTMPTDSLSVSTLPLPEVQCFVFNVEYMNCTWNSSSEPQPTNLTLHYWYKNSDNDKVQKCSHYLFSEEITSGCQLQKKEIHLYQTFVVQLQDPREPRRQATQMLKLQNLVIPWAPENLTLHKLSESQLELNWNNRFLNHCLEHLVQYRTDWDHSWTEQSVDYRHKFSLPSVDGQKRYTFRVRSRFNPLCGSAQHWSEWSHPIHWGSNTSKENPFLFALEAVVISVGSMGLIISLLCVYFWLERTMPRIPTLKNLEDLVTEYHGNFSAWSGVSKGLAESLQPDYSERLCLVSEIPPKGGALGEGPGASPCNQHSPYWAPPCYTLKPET

[3] = target: T1, human IL-2 receptor (IL-2Rα, IL-2Rβ, …); experiment: FACS on HEK-Blue IL-2 cells (IL-2 receptor, no PD-1)

Sequence of human PD-1 on cells (HEK-PD-1 reporter cells; activated PBMC) (Q15116 25-288): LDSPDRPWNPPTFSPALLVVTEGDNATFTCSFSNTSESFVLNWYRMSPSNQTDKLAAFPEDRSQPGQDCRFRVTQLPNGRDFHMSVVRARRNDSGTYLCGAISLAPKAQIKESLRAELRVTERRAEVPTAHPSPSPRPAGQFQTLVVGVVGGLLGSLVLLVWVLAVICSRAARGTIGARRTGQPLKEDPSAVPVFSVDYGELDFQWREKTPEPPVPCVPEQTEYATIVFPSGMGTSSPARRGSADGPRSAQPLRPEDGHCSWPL

B1: IL-2(R38D/K43E/E61R)/PD-L2-Fc immunomodulatory molecule (Fc fusion)
chain 1: LFTVTVPKELYIIEHGSNVTLECNFDTGSHVNLGAITASLQKVENDTSPHRERATLLEEQLPLGKASFHIPQVQVRDEGQYQCIIIYGVAWDYKYLTLKVKASYRKINTHILKVPETDEVELTCQATGYPLAEVSWPNVSVPANTSHSRTPEGLYQVTSVLRLKPPPGRNFSCVFWNTHVRELTLASIDLQSQMEPRTHPTGGGGSAPTSSSTKKTQLQLEHLLLDLQMILNGINNYKNPKLTDMLTFEFYMPKKATELKHLQCLERELKPLEEVLNLAQSKNFHLRPRDLISNINVIVLELKGSETTFMCEYADETATIVEFLNRWITFCQSIISTLTDKTHTCPPCPAPEDEGGPSVFLFPPKPKDTLMISRTPEVTCVVVDVSHEDPEVKFNWYVDGVEVHNAKTKPREEQYNSTYRVVSVLTVLHQDWLNGKEYKCKVSNKALPAPIEKTISKAKGQPREPQVYVYPPSREEMTKNQVSLTCLVKGFYPSDIAVEWESNGQPENNYKTTPPVLDEDGSFALVSKLTVDKSRWQQGNVFSCSVMHEALHNHYTQKSLSLSPGK
chain 2: LFTVTVPKELYIIEHGSNVTLECNFDTGSHVNLGAITASLQKVENDTSPHRERATLLEEQLPLGKASFHIPQVQVRDEGQYQCIIIYGVAWDYKYLTLKVKASYRKINTHILKVPETDEVELTCQATGYPLAEVSWPNVSVPANTSHSRTPEGLYQVTSVLRLKPPPGRNFSCVFWNTHVRELTLASIDLQSQMEPRTHPTGGGGSDKTHTCPPCPAPEKKGGPSVFLFPPKPKDTLMISRTPEVTCVVVDVSHEDPEVKFNWYVDGVEVHNAKTKPREEQYNSTYRVVSVLTVLHQDWLNGKEYKCKVSNKALPAPIEKTISKAKGQPREPQVYVLPPSREEMTKNQVSLLCLVKGFYPSDIAVEWESNGQPENRYMTWPPVLDSDGSFFLYSKLTVDKSRWQQGNVFSCSVMHEALHNHYTQKSLSLSPGK
notes: also called ligand-IL-2 mutant-PD-L2-Fc; IW-#11
- Percent IL-2 signal transduction (HEK-PD-1-IL-2 reporter assay) [1]: 43.5%
- Percent IL-2 signal transduction (HEK-IL-2 reporter assay) [2]: 2.4%
- binding result [3]: no binding
